Data published in patent US20180177842A1 (CANIMGUIDE THERAPEUTICS, published 2018).
Ends that are not written are not given here.

T1: His-tagged P3028 (human, also: His tag, length and end not given here)
T1 construct: in solution at 0.5 ug/mL, detected with mouse anti-His antibody and rabbit anti-mouse peroxidase (rampo); also called PGE73; His-tag-P3028; not shown: His tag
T1 peptide: VFDEFKPLVEEPQNLIK


Target: T1, His-tagged P3028
Experiment: PEPSCAN ELISA, peptide on chip;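 also: binding detected by peroxidase ELISA with ABTS, OD405 colour imaged by CCD camera before and after staining, raw OD405 reported as rampo units, air-bubble wells scored 0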
Protocol: After washing, the peroxidase substrate 2,2′-azine-di-3-ethylbenzthiazoline sulfonate (ABTS) and 2 μL of 3% H2O2 were added. The binding capacity of the mAb was measured as a color development at 405 nm (optical density, OD405). The color development was quantified with a charge-coupled device (CCD)—camera and an image processing system.
The OD405-values obtained by a CCD-camera was considered as raw data values (“rampo values,” “rampo units,” or “rampo scores”). […] First the CCD-camera made a picture of the card before peroxidase coloring and then again a picture after the peroxidase coloring. […] These values were copied into an excel file and labeled as a raw data file. […] Sometimes a well can contain an air-bubble resulting in a false-positive value. If manual inspection of the cards detect an air-bubble the value are set to 0 for well.

Binder | RAMPO Score [rampo units]
KKLDRFFVKLSLFTER [SEQ ID NO 309] | 430
KKLDTFFLKLSLFTER [SEQ ID NO 328] | 411
KKLDTAFVKLSLFTER [SEQ ID NO 313] | 575
KKLDSFFVKLSLFTER [SEQ ID NO 310] | 458
KKLDTFFFKLSLFTER [SEQ ID NO 326] | 358
KKLDTFSVKLSLFTER [SEQ ID NO 323] | 700
KKLDTFFGKLSLFTER [SEQ ID NO 327] | 379
KKLDTTFVKLSLFTER [SEQ ID NO 318] | 481
KKLDWFFVKLSLFTER [SEQ ID NO 311] | 418
KKLDTFFVKASLFTER [SEQ ID NO 332] | 426
KKLDTFLVKLSLFTER [SEQ ID NO 320] | 517
KKLDTFFVKPSLFTER [SEQ ID NO 338] | 436
KKLDTFQVKLSLFTER [SEQ ID NO 322] | 511
KKLDTPFVKLSLFTER [SEQ ID NO 317] | 497
KKLDTFFVKQSLFTER [SEQ ID NO 339] | 470
KKLDTIFVKLSLFTER [SEQ ID NO 314] | 466

Binder | RAMPO Score [rampo units]
KKLDTFFVKMSLFTER [SEQ ID NO 336] | 460
KKLDTVFVKLSLFTER [SEQ ID NO 319] | 547
KKLDTFFPKLSLFTER [SEQ ID NO 329] | 456
KKLDTFFVKISLFTER [SEQ ID NO 335] | 415
KKLDTFFVKNSLFTER [SEQ ID NO 337] | 365
KKLDYFFVKLSLFTER [SEQ ID NO 312] | 425
KKLDTMFVKLSLFTER [SEQ ID NO 315] | 467
KKLDTFFVRLSLFTER [SEQ ID NO 331] | 374
KKLDTFFRKLSLFTER [SEQ ID NO 330] | 365
KKLDTFTVKLSLFTER [SEQ ID NO 324] | 517
KKLDTFFVKFSLFTER [SEQ ID NO 333] | 403
KKLDTFFVKGSLFTER [SEQ ID NO 334] | 495
KKLDTFVVKLSLFTER [SEQ ID NO 325] | 527
KKLDTFMVKLSLFTER [SEQ ID NO 321] | 712
KKLDTNFVKLSLFTER [SEQ ID NO 316] | 446

Results, then the binder that gave them:

RAMPO Score [rampo units] | Binder
862 | KKLDTFFVKLSLNTER [SEQ ID NO 368]
409 | KKLDTFFVKLSWFTER [SEQ ID NO 360]
446 | KKLDTFFVKLSLVTER [SEQ ID NO 374]
494 | KKLDTFFVKLSLTTER [SEQ ID NO 373]
343 | KKLDTFFVKLSLFGER [SEQ ID NO 377]
351 | KKLDTFFVKSSLFTER [SEQ ID NO 341]
399 | KKLDTFFVKTSLFTER [SEQ ID NO 342]
525 | KKLDTFFVKLSLATER [SEQ ID NO 361]
768 | KKLDTFFVKLQLFTER [SEQ ID NO 348]
462 | KKLDTFFVKLSAFTER [SEQ ID NO 350]
400 | KKLDTFFVKLSLCTER [SEQ ID NO 362]
483 | KKLDTFFVKLSRFTER [SEQ ID NO 356]
744 | KKLDTFFVKLMLFTER [SEQ ID NO 346]
531 | KKLDTFFVKLSLGTER [SEQ ID NO 363]
348 | KKLDTFFVKLSLFFER [SEQ ID NO 376]
462 | KKLDTFFVKLSNFTER [SEQ ID NO 354]
468 | KKLDTFFVKLSLITER [SEQ ID NO 365]
696 | KKLDTFFVKLSLPTER [SEQ ID NO 369]
1140 | KKLDTFFVKLSLQTER [SEQ ID NO 370]
658 | KKLDTFFVKVSLFTER [SEQ ID NO 343]

RAMPO Score [rampo units] | Binder
382 | KKLDTFFVKYSLFTER [SEQ ID NO 344]
535 | KKLDTFFVKLHLFTER [SEQ ID NO 345]
502 | KKLDTFFVKLSLRTER [SEQ ID NO 371]
545 | KKLDTFFVKLSVFTER [SEQ ID NO 359]
439 | KKLDTFFVKRSLFTER [SEQ ID NO 340]
460 | KKLDTFFVKLSHFTER [SEQ ID NO 351]
456 | KKLDTFFVKLSIFTER [SEQ ID NO 352]
1050 | KKLDTFFVKLSLHTER [SEQ ID NO 364]
499 | KKLDTFFVKLSMFTER [SEQ ID NO 353]
651 | KKLDTFFVKLSQFTER [SEQ ID NO 355]
430 | KKLDTFFVKLSLWTER [SEQ ID NO 375]
437 | KKLDTFFVKLSTFTER [SEQ ID NO 358]
635 | KKLDTFFVKLSLSTER [SEQ ID NO 372]
520 | KKLDTFFVKLTLFTER [SEQ ID NO 349]
1190 | KKLDTFFVKLSLMTER [SEQ ID NO 367]
451 | KKLDTFFVKLNLFTER [SEQ ID NO 347]
375 | KKLDTFFVKLSLFIER [SEQ ID NO 379]
478 | KKLDTFFVKLSSFTER [SEQ ID NO 357]
448 | KKLDTFFVKLSLLTER [SEQ ID NO 366]
463 | KKLDTFFVKLSLFHER [SEQ ID NO 378]
